To fix the notation:
T1: recombinant human TNFR2 with 6×his tag (human, UniProt P20333 23-257, limits assumed)
T1 construct: Bought (Reprokine, Israel); also called TNFR2-His; hTNFR2-His; not shown: 6xHis tag
T1 sequence (looked up): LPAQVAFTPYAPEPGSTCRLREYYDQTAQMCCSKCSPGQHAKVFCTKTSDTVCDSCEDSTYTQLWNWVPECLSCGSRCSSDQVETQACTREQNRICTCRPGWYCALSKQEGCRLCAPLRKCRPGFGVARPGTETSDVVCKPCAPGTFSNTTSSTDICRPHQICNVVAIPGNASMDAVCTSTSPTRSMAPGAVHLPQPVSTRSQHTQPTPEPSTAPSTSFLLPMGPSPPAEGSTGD

B1: BDG30.080 (antibody, human IgG1, kappa, V domains shown)
VH: EVQLVESGGGLVQPGGSLRLSCAASGFNIRAMYIHWVRQSPGKGLEWVADIDPTNGDTRYADSVKGRFTISADTSKNTAYLQMNSLRAEDTAIYYCTREGQDGYNAFDKWGQGTLVTVSS
VL: DIQMTQSPILLSASVGDRVTITCRASQDVSTAVAWSQQRTNGSPRLLIYSASSLYSGVPSRFSGSRSGTDFTLTISSLQPEDIADYYCQQHRYTPPTFGAGTKVEIKR
notes: Human IgG1; also called IgG of CID_229
B2: CID_251 (scFv)
scFv: EVQLVQSGAEVKKPGSSVKVSCKASGDTFTSYSFNWVRQAPGQGLEWMGRIITILDDTEYAPHLQGRVTITADKSTSTVYLELRNLRSDDTAVYFCAGVYEGPNSEGSYDDYGFLKHWGQGTLVTVSSDIVMTQSPATLSVSPGERATLSCRASESVANDLAWYQQKPGQVPRLLIYGASTRATGVPARFSGSGSGAEFTLTISSLQSEDFAVYYCQQYANWPPRETFGQGTRLEIK
B3: CID_436 (scFv)
scFv: DIQMTQSPILLSASVGDRVTITCRASQDVSTAVAWSQQRTNGSPRLLIYSASSLYSGVPSRFSGSRSGTDFTLTISSLQPEDIADYYCQQPTYTPPTFGAGTKVEIKEVQLVESGGGLVQPGGSLRLSCAASGFNIRDTYIHWVRQSPGKGLEWVADIDPDNGDTRYADSVKGRFTISADTSKNTAYLQMNSLRAEDTAIYYCSRDLADGYNAFDRWGQGTLVTVSS
B4: CID_437 (scFv)
scFv: B3 scFv with T92P, Y140F, D206E, L207G, A208E, F214W, R216L
B5: CID_324 (scFv)
scFv: EVQLVQSGPELKKPGASVKVSCKGSGYTFTDLGINWVRQAPGQGLEWMGWINTHTGEPFYADDFKGRFVFSLDTSVSTAYLQISSLKAEDTAVYYCTRDHPLGLDYWGQGTLVTVSSDIQVTQSPSSLSASVGDRVTITCITSQSVDVNGVSYLNWYQQKPGKVPKFLIYKASRLRSGVPSRFSGSGSGTDFTLTISSLQPEDVATYYCQQSREDPYTFGQGTKVEIK
B6: CID_327 (scFv)
scFv: B5 scFv with I34M, N35G, H54Q, N149A, Y170H, R174N, S212A
B7: CID_323 (scFv)
scFv: B5 scFv with G24A, I34M, E57M, T97A, R174N, S177P
B8: CID_329 (scFv)
scFv: B5 scFv with Y95F, R174N, S177P
B9: CID_325 (scFv)
scFv: B5 scFv with G24A, N35G, V151L, P165T, R174N, R176G
B10: CID_328 (scFv)
scFv: B5 scFv with I34M, H54Q, Y95F, T97A, R174I
B11: CID_330 (scFv)
scFv: B5 scFv with F59Y, T97A, L154M, S173V, R174N, S177P
B12: CID_326 (scFv)
scFv: B5 scFv with G24A, I34M, E57K, R174N

Residue numbers refer to the chain shown, from its start.

In general, EC50 refers to the concentration giving half of the maximal effect.

One assay addresses T1, recombinant human TNFR2 with 6×his tag. The assay can be described thus: ELISA, IgG coated, hTNFR2-His titrated, anti-His-HRP. As to the method:
(§1) IgG binding affinity to TNFR2 was examined by ELISA. 96 well plates (Greiner Bio-One high binding) were coated with (50 ng/well) of the analyzed antibody and incubated overnight at 4° C. The plates were then washed three times with 300 μl PBS buffer containing 0.05% Tween 20 (PBS-T), blocked with 300μ PBS-T supplemented with 1% to 2% BSA, and incubated for 1 hour at room temperature. Antibodies-coated plates were washed three times with 300 μl PBS-T and incubated with serial dilutions of test ligand hTNFR2-His (Reprokine, Israel) in a final volume of […] for 1-2 hours. Plates were then washed three times with 300 μl PBS-T and incubated with 50 μl anti-HIS-HRP (Santa Cruz Biotechnology, USA, SC-8036HRP) conjugate that was diluted 1:250 in PBS. After an additional wash step of six washes, the reaction was developed with […] tetramethylbenzidine (TMB) reagent (Southern biotech, USA), and stopped with […] 0.5N H₂SO₄. Detection was done on a Synergy LX BioTek (BioTek, USA) plate reader with an absorbance filter set to […]. The binding affinity was determined by fitting the data to a specific binding non-linear regression model on Prisma 8 GraphPad software.
(§2) To test binding affinity of clones reformatted as IgG1 and IgG1LALA to TNFR2, an ELISA EC₅₀ binding experiment was conducted for each antibody.
For orientation: In an ELISA, binding on a coated surface is turned into a signal by an enzyme label.
On to B1, for which the EC50 was found to be 66.3 nM.

The target is the same in a further assay. The assay can be described thus: yeast surface display, TNFR2-His titrated, flow cytometry MFI. As to the method:
To determine the effective concentration₅₀ (EC₅₀) of TNFR2 binding to yeast scFv or Fab clones (EC₅₀— TNFR2 binding), specific clones were labeled at TNFR concentrations ranging from 0.1 nM to 1000 nM and analyzed on an FACS. Median fluorescence intensity (MFI) was determined for each TNFR2 concentration and EC₅₀ (TNFR2 binding) was calculated using Prisma 8 GraphPad (GraphPad, San Diego, USA) software.
As for B2, the half-maximal effective concentration (EC50) was found to be 1 nM. Take B3: the EC50 is 3.4 nM. Same read-out and setting: the result for B4 reads 1.2 nM; that for B5, 5.6 nM. Take B6: the EC50 was determined as 4.5 nM.

With B7, the concentration for a half-maximal effect (EC50) was found to be 5.2 nM. As to B8, the EC50 turned out to be 8.6 nM. Regarding B9, the EC50 came out at 2.9 nM. On the same count and under the same terms, the result for B10 reads 5.7 nM; that for B11, 17.7 nM.

In the case of B12, the concentration for a half-maximal effect (EC50) turned out to be 6 nM.

For a further assay the target is unchanged. The assay can be described thus: ELISA, IgG coated, soluble TNFR2-His titrated. As to the method: as §1, §2
Turning to B1, the half-maximal effective concentration (EC50) worked out at 66 nM.

Source of the values: patent publication US20230167188A1 (BIOLOJIC DESIGN, published 2023).
